Test results: PMC5515355, “Frizzled 7 and PIP2 binding by syntenin PDZ2 domain supports Frizzled 7 trafficking and signalling” (Nature Communications, 2016)
Where a chain is given by its changes, count along the chain named. Ends that are not written are not given here. carboxifluorescein = carboxyfluorescein

Tests used:
[1] = target: syntenin PDZ1–PDZ2 tandem (amino acids 107–275), wild type (human) (UniProt O00560); test: ITC; VP-ITC; Frizzled 7 peptide (1.0 mM) injected (32 x 8 μl) into PDZ1–PDZ2 tandem (30–60 μM); 10 mM Mes pH 7.0, 5 mM β-mercaptoethanol; binary sequential binding model
[2] = target: T1, syntenin PDZ1–PDZ2 tandem (amino acids 107–275), wild type (human, UniProt O00560 107-275); test: SPR; as a3, but the syntenin protein pre-incubated with 0.5 mM Ins(1,4,5)P3 (IP3, PIP2 head group) before perfusion; apparent KD; settings: both partners purified
T1 construct: syntenin, PDZ1–PDZ2 tandem, amino acids 107–275; also called PDZ tandem of syntenin; PDZ1–PDZ2 tandem wild-type; source: ER2566 cells (pETM-11 vector), purified; not shown: His6, N-terminal, kept
T1 sequence (looked up): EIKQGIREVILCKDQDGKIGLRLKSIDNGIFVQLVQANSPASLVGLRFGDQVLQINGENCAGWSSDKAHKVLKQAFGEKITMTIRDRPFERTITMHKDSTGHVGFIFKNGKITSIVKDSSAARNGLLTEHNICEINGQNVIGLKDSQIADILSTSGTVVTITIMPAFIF

[3] = target: T2, syntenin PDZ2 domain (residues 196–275), wild type (human, UniProt O00560 196-275); test: as above; settings: both partners purified
T2 construct: syntenin, PDZ2 domain, amino acids 196–275; also called PDZ2 wild type; source: ER2566 cells (pETM-11 vector), purified recombinant; not shown: His6, N-terminal, kept
T2 sequence (looked up): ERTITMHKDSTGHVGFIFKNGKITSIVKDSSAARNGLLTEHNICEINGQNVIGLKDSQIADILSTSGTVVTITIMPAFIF

[4] = target: T3, syntenin PDZ2 domain (196–275) K214A (human, UniProt O00560 196-275, K214A); test: as above; settings: both partners purified
T3 construct: syntenin, PDZ2 domain, amino acids 196–275, K214A; also called PDZ2 single mutant K214A; source: ER2566 cells (pETM-11 vector), purified; not shown: His6, N-terminal, kept
T3 sequence (looked up): T2 sequence (looked up) with K19A

[5] = target: T4, syntenin PDZ2 domain (196–275) N215D (human, UniProt O00560 196-275, N215D); test: as above; settings: both partners purified
T4 construct: syntenin, PDZ2 domain, amino acids 196–275, N215D; also called PDZ2 single mutant N215D; source: ER2566 cells (pETM-11 vector), purified; not shown: His6, N-terminal, kept
T4 sequence (looked up): T2 sequence (looked up) with N20D

[6] = target: T1, syntenin PDZ1–PDZ2 tandem (amino acids …); test: SPR; BIAcore T200, 25 °C; biotinylated Frizzled 7 19mer peptides (100 RU) immobilised on a streptavidin chip, His-tagged syntenin proteins as analytes; 10 mM HEPES pH 7.4, 150 mM NaCl, 0.005% Tween 20; equilibrium titration, apparent KD; without IP3; settings: both partners purified
[7] = target: T5, syntenin PDZ1–PDZ2 tandem (107–275) mutant K214A/K250A (human, UniProt O00560 107-275, K214A | K250A); test: as above; settings: both partners purified
T5 construct: syntenin, PDZ1–PDZ2 tandem, amino acids 107–275, K214A and K250A; PDB 4Z33 holds the wild-type parent of the same limits; also called PDZ1–PDZ2 tandem mutant K214A/K250A; K214A/K250A mutant tandem; source: ER2566 cells (pETM-11 vector), purified; not shown: His6, N-terminal, kept
T5 sequence (looked up): T1 sequence (looked up) with K108A, K144A

[8] = target: T2, syntenin PDZ2 domain (residues …); test: as above; settings: both partners purified
[9] = target: T6, syntenin PDZ2 domain (196–275) K250A (human, UniProt O00560 196-275, K250A); test: as above; settings: both partners purified
T6 construct: syntenin, PDZ2 domain, amino acids 196–275, K250A; also called PDZ2 single mutant K250A; source: ER2566 cells (pETM-11 vector), purified; not shown: His6, N-terminal, kept
T6 sequence (looked up): T2 sequence (looked up) with K55A

[10] = target: T7, syntenin PDZ2 domain (196–275) K214A/K250A (human, UniProt O00560 196-275, K214A | K250A); test: as above; settings: both partners purified
T7 construct: syntenin, PDZ2 domain, amino acids 196–275, K214A and K250A; also called PDZ2 double mutant; PDZ2 mutant K214A/K250A; source: ER2566 cells (pETM-11 vector), purified; not shown: His6, N-terminal, kept
T7 sequence (looked up): T2 sequence (looked up) with K19A, K55A

[11] = target: T1, syntenin PDZ1–PDZ2 tandem (amino acids …); test: MST; as a7, in the presence of Ins(1,4,5)P3 head group (concentration not stated); fit of Hill's equation; settings: both partners purified
[12] = target: T1, syntenin PDZ1–PDZ2 tandem (amino acids …); test: crystal structure; PDZ tandem co-crystallised with C4-PIP2 and the Frizzled 7 sixmer, molar ratio protein:lipid:peptide 10:23:23; 2.45 Å; settings: both partners purified
[13] = target: T2, syntenin PDZ2 domain (residues …); test: SPR; competition: PDZ2 wild type (30 μM) incubated with 0–4 mM 6mer Frizzled 7 peptide (KGETAV), then perfused over the Frizzled 7 peptide immobilised on a BIAcore streptavidin chip; equilibrium responses; settings: both partners purified

Molecule: 8mer C-terminal peptide from Frizzled 7 (from UniProt O75084 567-574)
- KD of the first site (binary sequential binding model) [1]: 20.5 µM
- KD of the second site (binary sequential binding model) [1]: 4.3 µM

B1: Frizzled 7 wild-type 19mer, biotinylated C-terminal peptide (SWRRFYHRLSHSSKGETAV) (peptide)
peptide: SWRRFYHRLSHSSKGETAV
modifications: also: biotinylated, position not given here
notes: Frizzled 7, last 19 residues, part of the cytoplasmic domain; K-5 is lysine 569; Immobilised on a streptavidin sensor chip; also called 19 amino acids C-terminal peptide from Frizzled 7; Frizzled 7 19mer; source: synthetic peptide, GenScript
- Kd [2]: 2 µM
- Kd [3]: 5 µM
- binding result [4]: binds
- binding result [5]: binds
- Kd [6]: 8 µM
- binding result [7]: binds
- Kd [8]: 32 µM
- binding result [9]: binds
- binding result [10]: binds

B2: 6mer C-terminal peptide from Frizzled 7, N-terminally labelled with carboxifluorescein (peptide)
peptide: carboxifluorescein-KGETAV
notes: Frizzled 7, C-terminal six residues; also called Frizzled 7 peptide (microscale thermophoresis); source: synthetic peptide (chemically synthesized, JPT, Germany)
- Kd [11]: 1.2 µM

B3: C-terminal hexapeptide of Frizzled 7 (KGETAV) (peptide)
peptide: KGETAV
notes: Frizzled 7, C-terminal six residues; K-5 is lysine 569; also called Fz7(6mer); 6mer Frizzled 7 peptide
- binding result [12]: binds
- binding result [13]: binds

B4: Frizzled 7 K-5A mutant 19mer, biotinylated (SWRRFYHRLSHSSAGETAV) (peptide)
peptide: SWRRFYHRLSHSSAGETAV
modifications: also: biotinylated, position not given here
notes: Frizzled 7, last 19 residues with the lysine at position -5 (lysine 569) replaced by alanine; Immobilised on a streptavidin sensor chip; also called Frizzled 7 K-5A 19mer; source: synthetic peptide, GenScript
- binding result [8]: binds
